# Experimental data: publication PMC6707248, “hCINAP regulates the DNA-damage response and mediates the resistance of acute myelocytic leukemia cells to therapy” (Nature Communications, 2019)
# Molecular target: T1, GST-NPM1 (unSUMOylated) (UniProt P06748 1-294)
# T1 construct: Nucleophosmin (NPM1); also called GST-tagged NPM1; unSUMOylated GST-NPM1; source: E. coli, purified
# Experiment: pull-down; in vitro GST pull-down; His-hCINAP and GST-NPM1 purified from E. coli; GST protein as negative control
# Conditions: both partners purified
# T1 sequence (P06748 whole entry): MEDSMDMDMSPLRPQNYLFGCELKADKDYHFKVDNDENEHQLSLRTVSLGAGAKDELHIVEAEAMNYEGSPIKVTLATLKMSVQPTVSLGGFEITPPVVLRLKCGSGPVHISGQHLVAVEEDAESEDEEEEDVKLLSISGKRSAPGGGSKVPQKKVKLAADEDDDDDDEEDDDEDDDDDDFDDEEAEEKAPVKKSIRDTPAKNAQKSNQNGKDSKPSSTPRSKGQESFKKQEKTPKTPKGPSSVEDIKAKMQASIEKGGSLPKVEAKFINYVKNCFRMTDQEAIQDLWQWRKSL
binder,measurement,value
"His-hCINAP (natural protein, human, UniProt Q9Y3D8 1-172, looked up, source: E. coli, purified) MLLPNILLTGTPGVGKTTLGKELASKSGLKYINVGDLAREEQLYDGYDEEYDCPILDEDRVVDELDNQMREGGVIVDYHGCDFFPERWFHIVFVLRTDTNVLYERLETRGYNEKKLTDNIQCEIFQVLYEEATASYKEEIVHQLPSNKPEELENNVDQILKWIEQWIKDHNS",binding result,binds
